These results are taken from paper PMC3936751.

Data set [1] relates to T1, hCdc45-His6 (Homo sapiens).
T1 sequence: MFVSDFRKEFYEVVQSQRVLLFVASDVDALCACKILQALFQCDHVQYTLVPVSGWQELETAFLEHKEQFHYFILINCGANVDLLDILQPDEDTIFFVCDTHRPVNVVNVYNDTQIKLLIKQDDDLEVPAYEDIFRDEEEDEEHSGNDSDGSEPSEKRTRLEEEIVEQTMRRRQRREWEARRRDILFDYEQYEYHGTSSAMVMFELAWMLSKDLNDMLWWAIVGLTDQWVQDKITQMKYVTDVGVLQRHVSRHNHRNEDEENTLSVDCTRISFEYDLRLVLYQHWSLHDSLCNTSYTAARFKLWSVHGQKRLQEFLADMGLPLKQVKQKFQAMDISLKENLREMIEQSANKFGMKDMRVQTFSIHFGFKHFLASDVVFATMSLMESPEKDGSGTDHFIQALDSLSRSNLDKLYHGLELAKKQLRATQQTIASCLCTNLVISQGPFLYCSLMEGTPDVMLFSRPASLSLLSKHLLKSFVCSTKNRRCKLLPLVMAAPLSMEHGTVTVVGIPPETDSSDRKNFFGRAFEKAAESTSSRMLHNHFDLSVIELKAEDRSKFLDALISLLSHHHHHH
The experiment in a line: EMSA. Particulars: EMSA: 50 mM HEPES-KOH pH 7.5, 150 mM KCl, 0.5 mM DTT, 50 ug/ml BSA, 30 C 10 min, SPR: 20 mM HEPES-KOH pH 7.5, 150 mM KCl, 1 mM DTT, 3 mM EDTA, 0.005% P20 ….

Data set [2] relates to T1, hCdc45-His6 (Homo sapiens). The experiment in a line: SPR. Particulars: EMSA: 50 mM HEPES-KOH pH 7.5, 150 mM KCl, 0.5 mM DTT, 50 ug/ml BSA, 30 C 10 min, SPR: 20 mM HEPES-KOH pH 7.5, 150 mM KCl, 1 mM DTT, 3 mM EDTA, 0.005% P20 …; for binding signal: scale: fold weaker than Y/bubble; for Kd: Cdc45 immobilized by anti-His.

67-mer ssDNA gave a binding signal (fold less efficient than 113-mer) in data set [1] (2 nM DNA) of 8.5.

In data set [1], 113-mer ssDNA showed a binding signal (% bound at 5 uM Cdc45) of 85.

Substance D-loop M5M6M2 had a binding signal in data set [2] greater than 10.

As to R-loop, in data set [2], the binding signal is greater than 10.

What is called Kd is the free concentration of one partner at which half of the binding sites on the other are occupied at equilibrium, for simple one-to-one binding. Consider “Y-shaped DNA M3S4 (17 bp, two 17-mer overhangs)”, for which the equilibrium dissociation constant (Kd) in data set [2] came out at 7.7 nM.

In data set [2], “bubble M5M6 (22 bp, 20 nt bubble, 22 bp)” came in with a Kd of 8 nM.
